± gives the uncertainty stated by the source.

The values that follow come from the supplement of paper PMC7877785.

A short description of this data set: self-splicing fitness, log relative to wild type (ln ratio); higher = more splicing; Tetrahymena group I intron in knt gene, E. coli kanamycin selection, DiMSum; sequences stand for … in CUCUCU…GGAGGGAAAAGUUAUCAGGCAUGCACCUGGUAGCUAGUCUUUAAACCAAUAGAUUGCAUCGGUUUAAAAGGCAAGACCGUCAAAUUGCGGGAAAGGGGUCAACAGCCGUUCAGUACCAAGUCUCAGGGGAAACUUUGAGAUGGCCUUGCAAAGGGUAUGGUAAUAAGCUGACGGACAUGGUCCUAACCACGCAGCCAAGUCCUAAGUCAACAGAUCUUCUGUUGAUAUGGAUGCAGUUCACAGACUAAAUGUCGGUCGGGGAAGAUGUAUUCUUCUCAUAAGAUAUAGUCGGACCUCUCCUUAAUGGGAGCUAGCGGAUGAAGUGAUGCAACACUGGAGCCGCUGGGAACUAAUUUGUAUGCGAAAGUAUAUUGAUUAGUUUUGGAGUACUCGUGGUCG
In a few lines: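 Fitness was computed with DiMSum as the error-weighted combination of replicate fold changes, kanamycin versus none, each normalised to wild type. The library randomised all eight intron nucleotides of the P1ex region, with the intron placed in the knt kanamycin-resistance gene on pET-22b(+) in E. coli BL21(DE3). Six replicate transformations were grown overnight at 37°C or 30°C on LB agar with or without 25 μg/mL kanamycin, plus 100 μg/mL carbenicillin, 50 μM IPTG and 0.2% rhamnose. Pooled colonies were amplicon-sequenced on an Illumina HiSeq 2500.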

As for CUGCAGCAAUAUUACGCGUC, the “self-splicing fitness (ln)” value (30 °C) is -3.98 ± 0.35 and the “self-splicing fitness (ln)” value (37 °C) is -2.05 ± 0.32. Taken in the same sequence, the figures for UAGAAGCAAUAUUACGUUAC were -3.73 ± 0.32 and -2.79 ± 0.27. Taken in the same sequence, the figures for CGUUAGCAAUAUUACGCCGC were -3.14 ± 0.3 and -2.73 ± 0.43. Turning to GGACAGCAAUAUUACGGCCA, the “self-splicing fitness (ln)” value (30 °C) is -0.721 ± 0.077 and the “self-splicing fitness (ln)” value (37 °C) was -0.225 ± 0.1. On the same counts, the results for GAUCAGCAAUAUUACGGAAC are -0.655 ± 0.094 and -0.0305 ± 0.12. Taken in the same sequence, the figures for UCGUAGCAAUAUUACGCUAG were -2.95 ± 0.26 and -2.32 ± 0.29. Taken in the same sequence, the figures for UUCAAGCAAUAUUACGAGAA were -1.84 ± 0.3 and -1.61 ± 0.37.

Regarding CCUCAGCAAUAUUACGGCCG, the “self-splicing fitness (ln)” value (30 °C) is -2.11 ± 0.1 and the “self-splicing fitness (ln)” value (37 °C) was -0.442 ± 0.11.

For CUAAAGCAAUAUUACGAGUA, the “self-splicing fitness (ln)” value (30 °C) is -3.16 ± 0.3 and the “self-splicing fitness (ln)” value (37 °C) is -2.73 ± 0.36.

With UGAAAGCAAUAUUACGCAGG, the “self-splicing fitness (ln)” value is, setting by setting: (30 °C) -2.65 ± 0.17; (37 °C) -1.42 ± 0.2. Take ACCAAGCAAUAUUACGGCUC: the “self-splicing fitness (ln)” value (30 °C) was -2.09 ± 0.07 and the “self-splicing fitness (ln)” value (37 °C) is -0.63 ± 0.084. On the same counts, the results for GAAAAGCAAUAUUACGCGUC are -4.29 ± 0.27 and -2.78 ± 0.24.

Take GGUAAGCAAUAUUACGAUUU: the “self-splicing fitness (ln)” value was -0.236 ± 0.1 (30 °C) and -0.0101 ± 0.14 (37 °C). For the sequence GGGAAGCAAUAUUACGCACU, the “self-splicing fitness (ln)” value is, setting by setting: (30 °C) -1.78 ± 0.21; (37 °C) -1.94 ± 0.2.

Regarding CCCCAGCAAUAUUACGAAGA, the “self-splicing fitness (ln)” value runs as follows: (30 °C) -2.91 ± 0.24; (37 °C) -2.52 ± 0.26. Taken in the same sequence, the figures for CAGUAGCAAUAUUACGCUAA were -2.26 ± 0.5 and -2.38 ± 0.32.

Regarding GCGUAGCAAUAUUACGAGUC, the “self-splicing fitness (ln)” value (30 °C) was -2.81 ± 0.22 and the “self-splicing fitness (ln)” value (37 °C) is -2.17 ± 0.23.

AUCUAGCAAUAUUACGAGGU: the “self-splicing fitness (ln)” value runs as follows: (30 °C) -5.03 ± 0.45; (37 °C) -3.28 ± 0.43. On the same counts, the results for CGUGAGCAAUAUUACGUUGC are -2.69 ± 0.21 and -2.51 ± 0.32. On the same counts, the results for AACAAGCAAUAUUACGCAUG are -1.7 ± 0.082 and -0.726 ± 0.1. For CACUAGCAAUAUUACGUUUC, the “self-splicing fitness (ln)” value runs as follows: (30 °C) -4.29 ± 0.3; (37 °C) -1.98 ± 0.29. On the same counts, the results for UAUGAGCAAUAUUACGUGCC are -4.14 ± 0.46 and -2.28 ± 0.31. With UCGCAGCAAUAUUACGCCUC, for the setting “37 °C”, the “self-splicing fitness (ln)” value was -2.36 ± 0.39. With CUUAAGCAAUAUUACGGGUU, the “self-splicing fitness (ln)” value reads like this: (30 °C) -2.65 ± 0.19; (37 °C) -3.2 ± 0.27. On the same counts, the results for GGACAGCAAUAUUACGUGCC are -3.78 ± 0.19 and -2.02 ± 0.21. With CGUCAGCAAUAUUACGAGGA, the “self-splicing fitness (ln)” value was -2.27 ± 0.19 (30 °C) and -2.38 ± 0.28 (37 °C). Taken in the same sequence, the figures for UCAUAGCAAUAUUACGAGGG were -2.24 ± 0.21 and -1.83 ± 0.29. Take GUAGAGCAAUAUUACGCAUA: the “self-splicing fitness (ln)” value was -1.58 ± 0.14 (30 °C) and -1.59 ± 0.17 (37 °C). For CGCAAGCAAUAUUACGCGCA, the “self-splicing fitness (ln)” value is -1.1 ± 0.086 (30 °C) and -1.46 ± 0.13 (37 °C).

On to GACUAGCAAUAUUACGCCCA, for which the “self-splicing fitness (ln)” value by setting is: (30 °C) -0.026 ± 0.17; (37 °C) 0.443 ± 0.24. On the same counts, the results for GUAAAGCAAUAUUACGGCCU are -0.0192 ± 0.12 and 0.105 ± 0.12. Taken in the same sequence, the figures for AAGCAGCAAUAUUACGCGUU were -2.2 ± 0.1 and -1.99 ± 0.11.

GUCCAGCAAUAUUACGAGGC: the “self-splicing fitness (ln)” value was -2.32 ± 0.22 (30 °C) and -2.35 ± 0.37 (37 °C).
